Read-outs that look alike come from different tables or passages of the source. Residues, ends and D or L forms follow the SMILES beside them. *: point of attachment. Cbz = O=C(OCc1ccccc1)*; CH2F = FC*
Key:
[1] = test system: caspase-1 activity in splenic CD11b^+ monocytes; experiment: FAM FLICA flow cytometry of caspase-1 activity (inflammasome activation) in splenic monocytes after stroke; format: in vivo, mice; settings: caspase-8 or caspase-9 inhibitor vs vehicle, 18 h after stroke, normalized to sham
Text: (§1) Mice were anaesthetized with isoflurane delivered in a mixture of 30% O2 and 70% N2O. An incision was made between the ear and the eye in order to expose the temporal bone. Mice were placed in supine position, and a laser Doppler probe was affixed to the skull above the middle cerebral artery (MCA) territory. The common carotid artery and left external carotid artery were exposed via midline incision and further isolated and ligated. A 2-mm silicon-coated filament (Doccol) was inserted into the internal carotid artery, advanced gently to the MCA until resistance was felt, and occlusion was confirmed by a corresponding decrease in blood flow (i.e., a decrease in the laser Doppler flow signal by 80%. After 60 minutes of occlusion, the animals were re-anesthetized, and the filament was removed. After recovery, the mice were kept in their home cage with ad libitum access to water and food. Sham-operated mice received the same surgical procedure, but the filament was […] in lieu of being advanced to the MCA. Body temperature was maintained at 37° C. throughout surgery in all mice via feedback-controlled heating pad. The overall mortality rate of animals subjected to MCA occlusion was approximately 20%. All animals in the sham group survived the procedure. Exclusion criteria: 1. Insufficient MCA occlusion (a reduction in blood flow to […] of the baseline value). 2. Death during the surgery. 3. Lack of brain ischemia as quantified post-mortem by histological analysis.
Human recombinant DNase (hrDNase): 1000 U of human recombinant DNase (Roche, Switzerland) dissolved in incubation 1× buffer (40 mM Tris-HCl, 10 mM NaCl, 6 mM MgCl2, 1 mM CaCl2, pH 7.9, diluted in PBS, Roche) was injected i.v. in the tail vein 1 hour after surgery in a final volume of 100 μl. The control group was administered vehicle injections at the same volume, route, and timing as experimental animals.
Caspase-8 inhibitor (Z-IETD-FMK) & Caspase-9 inhibitor (Z-LEHD-FMK): The apoptosis inhibitors Z-IETD-FMK and Z-LEHD-FMK (R&D systems, US) in DMSO dissolved in PBS and injected i.p. 30 minutes after surgery. Z-LEHD-FMK was injected at a dose of […] body weight at a final volume of 200 μl. Z-IETD-FMK was injected at a dose of 0.8 mg kg^−1 body weight at a final volume of 100 μl. The control groups were administered vehicle injections at the same volume, route, and timing as experimental animals.
To detect the active forms of caspase-1 in blood, spleen, and bone marrow samples, cell suspensions were stained with the fluorescent inhibitor probe FAM-YVAD-FMK (FAM FLICA, BioRad, Germany) for 30 minutes at 37° C. according to the manufacturer's instructions. After washing, the cells were stained for CD45^+CD3^+ T cells and CD45^+Cd11b^+ monocytes. The flow cytometry data was acquired on a BD FACSVerse (for representative gating strategy, see FIG. 10B).

splenic CD3^+ T cells = experiment: Splenic T cell counts by FACS after experimental stroke; format: in vivo, mice; settings: i.p. 30 minutes after stroke surgery; Z-IETD-FMK 0.8 mg kg^−1, Z-LEHD-FMK; normalized to sham
Text: as §1
Anti-IL1β: Mice received two injections of antagonizing anti-IL-1β in sterile saline (clone: B122, InVivoMab, BioXcell, US), 1 hour prior to and 1 hour after surgery. Anti-IL-1β or the corresponding IgG control (Armenian hamster IgG, InVivoMab, BioXcell, US) was injected i.p. at a dose of 4 mg kg^−1 body weight in a final volume of 200 μl.
Anti-FasL: Mice received two injections of antagonizing anti-FasL in sterile saline (clone: MFL3, InVivoMab, BioXcell, US), 1 hour prior to and 1 hour after surgery. […]

FasL on BMDMs = experiment: BMDMs treated with IL-1a, IL-1b or IL-18: FasL+ expression; format: cell-based, mice; settings: BMDMs treated with 100 ng of IL-1a, IL-1b or IL-18 for 4 h
T cells = experiment: BMDMs stimulated with rIL-1β, then T cell co-culture: T cell death; format: cell-based, mice; settings: T cells added to rIL-1β-stimulated BMDMs in fresh medium, FACS 180 minutes later
Experimental: Round-bottom tissue culture-treated 96-well plates were coated with 100 μl of PBS containing a mixture of […] purified NA/LE hamster anti-mouse CD3e (clone: 145-2C11, BD Pharmingen) and […] anti-mouse CD28 (clone: 37.51, Invitrogen), and then incubated overnight at 37° C. with 5% CO2. Spleens (wild type, Casp1^−/−) isolated from mice were homogenized into single splenocyte suspensions by using a 40 μm cell strainer followed by erythrolysis as described above. T cells were purified from splenocytes using a negative selection kit (MagniSort, Thermo Fisher) according to the manufacturer's instructions. Purity was reliably ≥90% as assessed by flow cytometry.
Control-treated BMDMs received only FBS-containing culture media. […] Stimulation by secreted factors (left), and 2. Cell-cell contact (right).

splenic T cells = experiment: rIL-1β i.p. injection in WT mice: T cell death in the spleen by FACS; format: in vivo; settings: rIL-1β 100 or 1000 ng single i.p. injection, 6 h later
Experimental: (§2) Murine recombinant IL-1β: Recombinant IL-1β (401-ML, R&D systems, US) was diluted in sterile PBS and administered intraperitoneally at a dose of 100 or 1000 ng per mouse in a total volume of 100 μl. The control group was administered vehicle injections at the same volume, route and timing as experimental animals.
(§3) Mice were deeply anaesthetized with ketamine (120 mg/kg) and xylazine (16 mg/kg) and blood was drawn via cardiac puncture in 50 mM EDTA (Sigma-Aldrich). Plasma was isolated by centrifugation at 3,000 g for 10 minutes and stored at −80° C. until further use. The blood pellet was resuspended in DMEM and erythrocytes were lysed using isotonic ammonium chloride buffer. Immediately following cardiac puncture, mice were transcardially perfused with normal saline for dissection of bone marrow and spleen. […]
(§4) The anti-mouse antibodies listed below (see Table 1) were used for surface marker staining of CD45^+ leukocytes, CD45^+CD11b^+ monocytes (+FasL^+ expression), CD3^+ T cells, CD3^+CD4^+ Thelper cells, CD3^+CD8^+ Tcytotox cells and CD19^+ B cells (for representative gating strategy, see FIG. 10A). […] Flow cytometric data was acquired using a BD FACSverse flow cytometer (BD Biosciences) and analyzed using FlowJo software (Treestar).

[2] = test system: FasL^+CD11b^+ monocytes (BMDMs); settings: BMDMs stimulated with rIL-1β in increasing doses, FACS 180 minutes after adding T cells
monocytic FasL = experiment: rIL-1β i.p. injection in WT mice: monocytic FasL expression in the spleen by FACS; format: in vivo; settings: rIL-1β 100 or 1000 ng single i.p. injection, 6 h later
Experimental: as §2, §3, §4

Molecule	caspase-1 activity in splenic CD11b+ monocytes [1]	caspase-1 activity in splenic CD11b+ monocytes ([1]; listed as C9i)	caspase-1 activity in splenic CD11b+ monocytes ([1]; listed as C8i)	T cell death (splenic CD3^+ T cells)	FasL+ expression normalized to untreated control (FasL on BMDMs)	T cell death (T cells)	T cell death (T cells; listed as recombinant IL-1β)	T cell death in the spleen (splenic T cells; listed as rIL-1b)	T cell death in the spleen (splenic T cells; listed as recombinant IL-1β)	ratio of FasL+CD11b+ monocytes / FasL expression [2]	ratio of FasL+CD11b+ monocytes / FasL expression ([2]; listed as recombinant IL-1β)	monocytic FasL expression in the spleen (monocytic FasL)	monocytic FasL expression in the spleen (monocytic FasL; listed as recombinant IL-1β)
COC(=O)CC[C@H](NC(=O)[C@H](CC(C)C)NC(=O)OCc1ccccc1)C(=O)N[C@@H](Cc1cnc[nH]1)C(=O)N[C@@H](CC(=O)OC)C(=O)CF [Z-LEHD-FMK] (Cbz-LE(OMe)HD(OMe)-CH2F)	neither affected caspase-1 activation in monocytes	Neither caspase-8 nor caspase-9 inhibitor showed differences in caspase-1 activity compared to the vehicle-treated mice	–	–	–	–	–	–	–	–	–	–	–
CC[C@H](C)[C@H](NC(=O)OCc1ccccc1)C(=O)N[C@@H](CCC(=O)OC)C(=O)N[C@H](C(=O)N[C@@H](CC(=O)OC)C(=O)CF)[C@@H](C)O [Z-IETD-FMK] (Cbz-IE(OMe)TD(OMe)-CH2F)	neither affected caspase-1 activation in monocytes	–	Neither caspase-8 nor caspase-9 inhibitor showed differences in caspase-1 activity compared to the vehicle-treated mice	T cell death was only reduced in mice treated with the caspase-8	–	–	–	–	–	–	–	–	–
rIL-1β: Murine recombinant IL-1β (401-ML, R&D systems) (protein, UniProt P10749 118-269, looked up) Interleukin-1 beta: VPIRQLHYRLRDEQQKSLVLSDPYELKALHLNGQNINQQVIFSMSFVQGEPSNDKIPVALGLKGKNLYLSCVMKDGTPTLQLESVDPKQYPKKKMEKRFVFNKIEVKSKVEFESAEFPNWYISTSQAEHKPVFLGNNSGQDIIDFTMESVSS	–	–	–	–	FasL upregulation on myeloid cells was predominantly induced by IL-1β	increased T cell death	increased FasL expression and T cell death but to a lesser degree than induced by the serum of stroke mice	dose-dependent increase in T cell death in the spleen	dose-dependently induced T cell death and FasL upregulation on myeloid cells	increased the ratio of FasL^+CD11b^+ monocytes	increased FasL expression and T cell death but to a lesser degree than induced by the serum of stroke mice	dose-dependent increase in associated monocytic FasL expression in the spleen	dose-dependently induced T cell death and FasL upregulation on myeloid cells
